Patent publication US20120148593A1 (published 2012)
Substitutions are numbered along the chain they refer to.

T1: recombinant soluble MD-2 purified from baculovirus-infected insect cell supernatants (Homo sapiens (Human), UniProt Q9Y6Y9 19-160)
T1 construct: not shown: C-terminal FLAG and 6xHIS tags
T1 chain: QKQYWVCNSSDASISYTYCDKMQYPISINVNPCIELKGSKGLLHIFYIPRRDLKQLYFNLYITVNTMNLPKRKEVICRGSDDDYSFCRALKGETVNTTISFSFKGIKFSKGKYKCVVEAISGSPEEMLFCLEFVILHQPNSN

T2: human MD-2 expressed in transfected HEK 293 cells (human, UniProt Q9Y6Y9 19-160)
T2 construct: also called MD-2 alone; wt MD-2
T2 chain: T1 chain

B1: mu18H10 murine monoclonal antibody (antibody, mouse IgG2b, V domains shown)
VH: QVQLQQSGADLVRPGALVKLSCTASGFNIKDSYIHWVKKRPEWGLEWIGWTDPENVNSIYDPRFQGKASITADTSSNTAFLQLTSLTSEDTAVYYCARGYNGVYYAMDYWGQGTTVTVSS
VL: QIVLTQSPSIMSASLGEEITLTCSASSSVIYMHWYQQKSGTSPKLLIYRTYNLASGVPSRFSGSGSGTFYSLTISSVEAEDAADYYCHQWSSFPYTFGGGTKLEIKR
B2: mu16G7 murine monoclonal antibody (antibody, mouse IgG1, V domains shown)
VH: QVKLQESGAELMKPGASVKISCKATGYKFSDYWIEWIKQRPGHGLEWIGEILPGSGSTNYNEDFKDKATFTSDTSSNTAYMQLSSLTSEDSAVYYCAKEERAYYFGYWGQGTTVTVSS
VL: DVEMTQTPLSLPVSLGDQASISCRSSQSLENSNGNTYLNWYLQKPGQSPQLLIYRVSNRFSGVLDRFSGSGSGTDFTLKISRVEAEDLGVYFCLQVTHVPPTFGAGTKLELKR
B3: mu15C1 murine monoclonal antibody (antibody, mouse IgG1, V domains shown)
VH: DVQLQESGPDLIQPSQSLSLTCTVTGYSITGGYSWHWIRQFPGNKLEWMGYIHYSGYTDFNPSLKTRISITRDTSKNQFFLQLNSVTTEDTATYYCARKDPSDGFPYWGQGTLVTVSA
VL: DIVMTQSPATLSVTPGDRVSLSCRASQSISDHLHWYQQKSHESPRLLIKYASHAISGIPSRFSGSGSGTDFTLSIKSVEPEDIGVYYCQNGHSFPLTFGAGTKLELKR
B4: chimeric 15C1 MAb (antibody, V domains shown)
VH: B3 VH
VL: B3 VL
notes: also called 15C1 CHIM; 15C1 chimeric antibody
B5: mu7E3 murine monoclonal antibody (antibody, mouse IgG1, V domains shown)
VH: QVTLKESGPGILQPSQTLSLTCSFSGFSLTTYNIGVGWIRQPSGKGLEWLAHIWWNDNIYYNTVLKSRLTFSKDTSNNQVFLKIASVDIADTATYYCIRMAEGRYDAMDYWGQGTSVTVSS
VL: AIQMTQSTSSLSASLGDRVTINCRASQDITNYLNWYQQKPDGTVRLLIYYTSKLHSGAPSRFSGRGSGTDYSLTISNLEQEDIATYFCQQGNTFPWTFGGGTKLEIKR
B6: chimeric 7E3 MAb (antibody, V domains shown)
VH: B5 VH
VL: B5 VL
notes: also called 7E3 CHIM; 7E3 chimeric antibody
B7: hu15C1 4-28 QC 30/A26 variant (antibody, V domains shown)
VH: QVQLQESGPGLVKPSDTLSLTCAVSGYSISGGYSWHWIRQPPGKGLEWMGYIHYSGYTDFNPSLKTRITISRDTSKNQFSLKLSSVTAVDTAVYYCARKDPSDGFPYWGQGTLVTVSS
VL: EIVLTQSPDFQSVTPKEKVTITCRASQSISDHLHWYQQKPDQSPKLLIKYASHAISGVPSRFSGSGSGTDFTLTINSLEAEDAATYYCQNGHSFPLTFGGGTKVEIK
notes: also called 15C1 4-28° C.30/A26
B8: hu15C1 4-28 QC 48/A26 variant (antibody, V domains shown)
VH: B7 VH with S30T, M49I
VL: B7 VL
notes: also called 15C1 4-28° C.48/A26
B9: hu15C1 4-28 QC 67/A26 variant (antibody, V domains shown)
VH: B7 VH with S30T, I68V
VL: B7 VL
notes: also called 15C1 4-28° C.67/A26
B10: hu15C1 4-28 QC 69/A26 variant (antibody, V domains shown)
VH: B7 VH with S30T, I70M
VL: B7 VL
notes: also called 15C1 4-28° C.69/A26
B11: chimeric 18H10 MAb (antibody, V domains shown)
VH: B1 VH
VL: B1 VL
notes: also called 18H10chim; 18H10 chimeric antibody

How the values were obtained:
[1] = biological target: T1, recombinant soluble MD-2 purified from …; experiment: direct ELISA, MD-2 coated at 5 µg/ml
Method: Recombinant soluble MD-2 with C terminal FLAG and histidine epitope tags was coated at a concentration of 5 μg/ml in 50 μl PBS on ELISA plates (Nunc Maxisorp). Wells were blocked with 200 μl PBS 2% BSA and subsequently incubated with the appropriate MAb at the indicated concentration in PBS 1% BSA. Following 3 wash steps with PBS 0.05% Tween 20, 50 μl HRP conjugated goat anti-mouse IgG (H+L) at a 1:5000 dilution was added to the wells. […] Plates were read at a wavelength of 650 nm.
Using direct ELISA, no binding of mu18H10 to recombinant soluble MD-2 generated with the baculovirus expression system was detected (FIG. 5a).

[2] = biological target: T2, human MD-2 expressed in transfected HEK …; experiment: sandwich ELISA, capture on anti-FLAG M2, biotinylated mu18H10
Method: For sample preparation, HEK 293 cells were transfected with the appropriate plasmid constructs using the Fugene 6™ transfection reagent as described in paragraph G above. 48 hours post-transfection, cells were collected and cleared by centrifugation. Cells were subsequently incubated with biotinylated mu18H10 (10 μg/ml) and lysed in 20 mM Tris pH 7.4, 150 mM NaCl, 1% NP40 containing COMPLETE™ protease inhibitors (Roche).
To perform the sandwich ELISA, Nunc maxisorp plate wells were coated with 50 μl of the anti-FLAG™ M2 MAb (Sigma) at a concentration of 5 μg/ml in PBS. Wells were blocked with 200 μl PBS 2% BSA and subsequently incubated with 50 μl of the appropriate samples at the indicated dilution. Wells were washed three times with 200 μl PBS 0.05% Tween 20 and incubated with 50 μl of the appropriate antibody (10 μg/ml for biotinylated mu18H10 and 12D4, 1 μg/ml for the polyclonal […]). Following a wash step as above, wells were incubated with 50 μl of the appropriate detection antibody (HRP conjugated streptavidin at a dilution of 1:1500 for the biotinylated MAbs and HRP conjugated anti-rabbit IgG (H+L) at a dilution of 1:5000 for the polyclonal rabbit Ab). […] Plates were read at a wavelength of 650 nm.

[3] = biological target: T3, human TLR4/MD-2 receptor complex expressed on transfected cells (human, UniProt O00206 24-839; Q9Y6Y9 19-160); experiment: flow cytometry, mock transfected vs TLR4/MD-2 transfected cells
T3 construct: Tags differ by cell line: CHO-K1: N-terminal c-myc on TLR4, C-terminal c-Myc and Protein C on MD-2; also called TLR4/MD-2 complex; hTLR4/MD-2
Target sequence in this assay (O00206 24-839 limits assumed, chain 1 of 2, one chain of several): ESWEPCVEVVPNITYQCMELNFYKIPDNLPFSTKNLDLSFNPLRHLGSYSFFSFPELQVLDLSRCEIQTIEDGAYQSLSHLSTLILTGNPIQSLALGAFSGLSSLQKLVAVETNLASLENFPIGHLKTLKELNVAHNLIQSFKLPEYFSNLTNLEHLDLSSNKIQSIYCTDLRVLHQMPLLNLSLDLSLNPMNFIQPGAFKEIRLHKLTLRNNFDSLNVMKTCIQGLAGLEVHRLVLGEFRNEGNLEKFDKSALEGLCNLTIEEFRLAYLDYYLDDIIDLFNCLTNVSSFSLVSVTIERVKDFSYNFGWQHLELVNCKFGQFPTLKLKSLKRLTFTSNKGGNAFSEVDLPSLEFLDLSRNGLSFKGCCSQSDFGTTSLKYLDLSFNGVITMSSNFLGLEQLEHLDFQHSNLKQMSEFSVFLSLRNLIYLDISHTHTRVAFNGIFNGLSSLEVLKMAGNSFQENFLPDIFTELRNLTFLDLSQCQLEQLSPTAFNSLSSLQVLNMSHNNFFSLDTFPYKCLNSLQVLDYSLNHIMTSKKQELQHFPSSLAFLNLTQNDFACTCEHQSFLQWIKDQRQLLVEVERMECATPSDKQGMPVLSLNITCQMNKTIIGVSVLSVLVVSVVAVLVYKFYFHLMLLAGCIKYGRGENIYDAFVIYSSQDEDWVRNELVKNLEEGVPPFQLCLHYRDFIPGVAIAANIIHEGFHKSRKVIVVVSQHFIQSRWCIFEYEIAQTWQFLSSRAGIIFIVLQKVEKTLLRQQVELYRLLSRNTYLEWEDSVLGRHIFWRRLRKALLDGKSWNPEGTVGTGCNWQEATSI

[4] = biological target: T3, human TLR4/MD-2 receptor complex …; experiment: flow cytometry, TLR4/MD-2 transfected CHO cells
Method: FIG. 41 is a graph depicting that the hu15C1 humanized antibody that includes VH 4-28 shown in SEQ ID NO:45 (“15C1 4-28/A26”) and variants thereof in which residues at chosen positions have been replaced by the corresponding amino acid in the given human germline (“15C1 4-28° C.30/A26”; “15C1 4-28° C.48/A26”; “15C1 4-28° C.67/A26” and “15C1 4-28° C.69/A26”, see TABLE 1) are capable of binding specifically to the human TLR4/MD-2 complex on the surface of transfected CHO cells. MAb binding to the TLR4/MD-2 transfected CHO cells is shown by flow cytometry using the hu15C1 antibodies or the chimeric 15C1 (“15C1 CHIM”) (described above) at the concentrations indicated. Binding is measured as a cellular Mean Fluorescence Intensity (MFI) value.

Binder	binding result [3]	binding result [4]	further results
B1	binds		binding result [1]: no binding; binding result [2]: no binding (tested: 10 µg/ml)
B2	binds		
B3	binds		
B4		binds	
B5	binds		
B6		binds	
B7		binds	
B8		binds	
B9		binds	
B10		binds	
B11		binds	
